Test results: US20030021774

Tests used:
[1] = biological target: T1, Soybean Kunitz Trypsin Inhibitor, P01070
T1 chain: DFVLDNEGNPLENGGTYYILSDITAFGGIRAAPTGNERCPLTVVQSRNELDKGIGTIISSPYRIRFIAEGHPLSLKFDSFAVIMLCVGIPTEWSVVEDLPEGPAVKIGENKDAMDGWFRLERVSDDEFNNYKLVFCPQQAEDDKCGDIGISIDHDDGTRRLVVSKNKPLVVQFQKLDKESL

[2] = biological target: T2, soybean Bowman-Birk Inhibitor, P01055
T2 chain: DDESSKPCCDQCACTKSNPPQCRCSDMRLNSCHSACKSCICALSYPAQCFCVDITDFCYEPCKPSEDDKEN

[3] = biological target: soybean agglutinin (SBA), P05046
Chain of soybean agglutinin (SBA), P05046 (P05046 33-285): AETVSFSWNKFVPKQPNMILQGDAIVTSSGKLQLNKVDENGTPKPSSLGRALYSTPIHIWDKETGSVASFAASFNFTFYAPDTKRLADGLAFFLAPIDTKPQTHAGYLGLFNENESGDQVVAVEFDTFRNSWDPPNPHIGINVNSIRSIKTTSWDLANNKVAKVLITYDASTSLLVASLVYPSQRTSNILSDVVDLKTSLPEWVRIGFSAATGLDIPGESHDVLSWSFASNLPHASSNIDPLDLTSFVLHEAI

B1: protease derived from Bacillus sp. NCIMB 40484 (protein)
chain: MKFKKIAALSLATSLALFPAFGGSSLAKEAPKPFQPINKTLDKGAFESGEVIVKFKDGVSKKAQGSALNKAEANEQKASAKDPFQVLEVADVDQAVKALENNPNVEYAEPNYTFQATWSPNDPYYSAYQYGPQNTSTPAAWDVTRGSSTQTVAVLDSGVDYNHPDLARKVIKGYDFIDRDNNPMDLNGHGTHVAGTVAADTNNGIGVAGMAPDTKILAVRVLDANGSGSLDSIASGIRYAADQGAKVLNLSLGCECNSTTLKSAVDYAWNKGAVVVAAAGNDNVSRTFQPASYPNAIAVGAIDSNDRKASFSNYGTWVDVTAPGVNIASTVPNNGYSYMSGTSMASPHVAGLAALLASQGKNNVQIRQAIEQTADKISGTGTNFKYGKINSNKAVRY
[1]
  % of anti-nutritional factor degraded (SDS-PAGE band scanning): 100%
[2]
  % of anti-nutritional factor degraded (SDS-PAGE band scanning): 41%
[3]
  % of anti-nutritional factor degraded (SDS-PAGE band scanning): 21%
